Results published in the supplement of paper PMC9112550, “Optimization of the antimicrobial peptide Bac7 by deep mutational scanning” (BMC Biology, 2022).

System: Escherichia coli TOP10
Assay: shrunken log2 fold change of peptide-encoding DNA abundance (4.5 h post-induction vs induction); higher = less antimicrobial activity (less host growth inhibition)
Settings: time post-induction: 4.5 h; library: site-saturation at positions 5, 18, 19, 20
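Further: peptides expressed intracellularly from a pBAD plasmid library in pooled LB shake-flask culture, induced with 0.3% L-arabinose, DNA abundance read by NGS, three biological replicates, DESeq2 with apeglm shrinkage.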

Sequence	shrunken log2 fold change
RRIRERPPRLPRPRPRPFACPRP	-0.433
RRIRARPPRLPRPRPRPMRMPRP	0.784
RRIRWRPPRLPRPRPRPDLKPRP	0.12
RRIRNRPPRLPRPRPRPWFPPRP	-0.223
RRIRSRPPRLPRPRPRPEIFPRP	-0.432
RRIRQRPPRLPRPRPRPKNKPRP	-0.29
RRIRLRPPRLPRPRPRPTVLPRP	-0.126
RRIRMRPPRLPRPRPRPLKMPRP	0.146
RRIRSRPPRLPRPRPRPVPAPRP	0.122
RRIRERPPRLPRPRPRPWGRPRP	0.268
RRIRVRPPRLPRPRPRPGMAPRP	0.183
RRIRKRPPRLPRPRPRPWNLPRP	-0.109
RRIRRRPPRLPRPRPRPCYDPRP	-0.194
RRIRQRPPRLPRPRPRPLQAPRP	0.0365
RRIRFRPPRLPRPRPRPQDSPRP	-0.113
RRIRVRPPRLPRPRPRPKQDPRP	-0.266
RRIRSRPPRLPRPRPRPMPNPRP	-0.0112
RRIRCRPPRLPRPRPRPPLGPRP	0.807
RRIRSRPPRLPRPRPRPLHDPRP	-0.0221
RRIRLRPPRLPRPRPRPRMNPRP	0.179
RRIRRRPPRLPRPRPRPCGRPRP	-0.0337
RRIRWRPPRLPRPRPRPRPFPRP	0.56
RRIRMRPPRLPRPRPRPCNCPRP	-0.0499

Sequence	shrunken log2 fold change
RRIRVRPPRLPRPRPRPEHQPRP	-0.477
RRIRERPPRLPRPRPRPKIAPRP	-0.147
RRIRCRPPRLPRPRPRPTYNPRP	-0.722
RRIRNRPPRLPRPRPRPVNTPRP	-0.0908
RRIRNRPPRLPRPRPRPLQVPRP	-0.136
RRIRIRPPRLPRPRPRPEIIPRP	-0.00386
RRIRPRPPRLPRPRPRPHGSPRP	0.063
RRIRTRPPRLPRPRPRPRPIPRP	-0.138
RRIRLRPPRLPRPRPRPCMMPRP	-0.225
RRIRIRPPRLPRPRPRPMVCPRP	-0.0245
RRIRARPPRLPRPRPRPQGIPRP	0.0477
RRIRHRPPRLPRPRPRPHTMPRP	-0.0685
RRIRPRPPRLPRPRPRPQINPRP	-0.122
RRIRTRPPRLPRPRPRPSCKPRP	-0.885
RRIRTRPPRLPRPRPRPKLIPRP	-0.0765
RRIRCRPPRLPRPRPRPLQIPRP	-0.213
RRIRFRPPRLPRPRPRPCTCPRP	-0.187
RRIRVRPPRLPRPRPRPGTGPRP	0.148
RRIRLRPPRLPRPRPRPCNCPRP	0.045
RRIRPRPPRLPRPRPRPWSQPRP	0.0452
RRIRPRPPRLPRPRPRPTSYPRP	-0.0178
RRIRCRPPRLPRPRPRPACRPRP	0.128
RRIRKRPPRLPRPRPRPPGYPRP	0.176

Sequence	shrunken log2 fold change
RRIRWRPPRLPRPRPRPNFSPRP	-0.305
RRIRHRPPRLPRPRPRPGNFPRP	-0.537
RRIRNRPPRLPRPRPRPFPMPRP	-0.0139
RRIRWRPPRLPRPRPRPPACPRP	0.531
RRIRNRPPRLPRPRPRPDFHPRP	-0.441
RRIRERPPRLPRPRPRPWYYPRP	0.0432
RRIRPRPPRLPRPRPRPSYTPRP	-0.868
RRIRKRPPRLPRPRPRPWSWPRP	0.00624
RRIRQRPPRLPRPRPRPWCCPRP	0.0636
RRIRPRPPRLPRPRPRPKIAPRP	-0.1
RRIRHRPPRLPRPRPRPFQWPRP	-0.139
RRIRSRPPRLPRPRPRPHRRPRP	0.0441
RRIRPRPPRLPRPRPRPPHFPRP	0.646
RRIRQRPPRLPRPRPRPPMKPRP	0.00136
RRIRNRPPRLPRPRPRPIFDPRP	-0.201
RRIRIRPPRLPRPRPRPRYPPRP	-0.0444
RRIRDRPPRLPRPRPRPEEPPRP	2.06
RRIRDRPPRLPRPRPRPQFEPRP	0.0888
RRIRCRPPRLPRPRPRPDEGPRP	-0.00232
RRIRTRPPRLPRPRPRPQLQPRP	-0.0711
RRIRFRPPRLPRPRPRPGDTPRP	-0.309
RRIRNRPPRLPRPRPRPRDGPRP	0.292
RRIRQRPPRLPRPRPRPMNCPRP	-0.0255

Sequence	shrunken log2 fold change
RRIRRRPPRLPRPRPRPFLMPRP	0.0572
RRIRMRPPRLPRPRPRPVMKPRP	0.0713
RRIRFRPPRLPRPRPRPCKTPRP	0.00592
RRIRQRPPRLPRPRPRPQRTPRP	0.0128
RRIRARPPRLPRPRPRPDRCPRP	0.285
RRIRRRPPRLPRPRPRPAWLPRP	0.505
RRIRTRPPRLPRPRPRPFNFPRP	-0.617
RRIRWRPPRLPRPRPRPIFWPRP	-0.00424
RRIRIRPPRLPRPRPRPCFQPRP	-0.391
RRIRTRPPRLPRPRPRPASLPRP	0.105
RRIRVRPPRLPRPRPRPWHHPRP	0.0243
RRIRMRPPRLPRPRPRPRATPRP	1.57
RRIRWRPPRLPRPRPRPIYTPRP	-0.412
RRIRERPPRLPRPRPRPHLDPRP	0.000475
RRIRPRPPRLPRPRPRPFSHPRP	-0.402
RRIRSRPPRLPRPRPRPGQFPRP	-0.112
RRIRDRPPRLPRPRPRPEAFPRP	0.119
RRIRYRPPRLPRPRPRPTKGPRP	-0.136
RRIRMRPPRLPRPRPRPSPFPRP	0.124
RRIRWRPPRLPRPRPRPQHAPRP	-0.0577
RRIRPRPPRLPRPRPRPPNEPRP	-0.0989
RRIRERPPRLPRPRPRPPSGPRP	0.275
